Results from publication PMC12440825, “SNARE disassembly requires Sec18/NSF side loading” (Nature Structural & Molecular Biology, 2025).

T1: yeast exocytic SNARE complex Sso1–Sec9–Snc1 (S. cerevisiae, UniProt P32867 1-265; P40357 401-651; P31109 1-93)
T1 construct: Sso1, S. cerevisiae, residues 1-265; as m4; Sec9, S. cerevisiae, residues 401-651; as m5; Snc1, S. cerevisiae, residues 1-93; as m6; also called ySNARE complex; yeast exocytic complex; source: E. coli BL21(DE3), each SNARE purified, mixed 1:1:1 in 6 M GdHCl, dialysed, purified (MonoQ); not shown: His6, N-terminal, cleaved; copies: 1 + 1 + 1
T1 sequence (looked up) 1: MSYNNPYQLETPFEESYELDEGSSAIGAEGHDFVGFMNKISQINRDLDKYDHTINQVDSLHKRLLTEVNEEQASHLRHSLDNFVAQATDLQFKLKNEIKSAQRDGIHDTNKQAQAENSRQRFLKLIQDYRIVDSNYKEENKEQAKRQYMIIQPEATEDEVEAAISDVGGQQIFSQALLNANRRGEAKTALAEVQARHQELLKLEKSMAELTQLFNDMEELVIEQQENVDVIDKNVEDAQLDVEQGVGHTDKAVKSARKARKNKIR
T1 sequence (looked up) 2: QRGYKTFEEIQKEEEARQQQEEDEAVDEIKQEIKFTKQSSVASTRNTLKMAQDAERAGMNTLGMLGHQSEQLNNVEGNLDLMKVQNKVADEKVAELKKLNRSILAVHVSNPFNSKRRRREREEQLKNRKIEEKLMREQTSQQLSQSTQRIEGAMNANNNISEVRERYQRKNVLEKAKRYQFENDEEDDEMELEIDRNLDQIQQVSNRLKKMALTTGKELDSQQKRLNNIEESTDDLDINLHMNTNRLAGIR
T1 sequence (looked up) 3: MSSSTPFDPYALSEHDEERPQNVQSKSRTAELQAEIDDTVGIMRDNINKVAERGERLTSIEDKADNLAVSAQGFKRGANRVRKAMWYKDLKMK

B1: Snc1 (1–93) (domain or fragment, S. cerevisiae, UniProt P31109 1-93, looked up)
chain: T1 sequence (looked up) 3
notes: Snc1, S. cerevisiae synaptobrevin-like SNARE, residues 1-93; source: E. coli BL21(DE3), purified (Ni-NTA, TEV, ion exchange, SEC); not shown: His6, N-terminal, cleaved
B2: Sec18 (recombinant, complete coding sequence) (enzyme, S. cerevisiae, UniProt P18759 1-758, looked up)
chain: MFKIPGFGKAAANHTPPDMTNMDTRTRHLKVSNCPNNSYALANVAAVSPNDFPNNIYIIIDNLFVFTTRHSNDIPPGTIGFNGNQRTWGGWSLNQDVQAKAFDLFKYSGKQSYLGSIDIDISFRARGKAVSTVFDQDELAKQFVRCYESQIFSPTQYLIMEFQGHFFDLKIRNVQAIDLGDIEPTSAVATGIETKGILTKQTQINFFKGRDGLVNLKSSNSLRPRSNAVIRPDFKFEDLGVGGLDKEFTKIFRRAFASRIFPPSVIEKLGISHVKGLLLYGPPGTGKTLIARKIGTMLNAKEPKIVNGPEILSKYVGSSEENIRNLFKDAEAEYRAKGEESSLHIIIFDELDSVFKQRGSRGDGTGVGDNVVNQLLAKMDGVDQLNNILVIGMTNRKDLIDSALLRPGRFEVQVEIHLPDEKGRLQIFDIQTKKMRENNMMSDDVNLAELAALTKNFSGAEIEGLVKSASSFAINKTVNIGKGATKLNTKDIAKLKVTREDFLNALNDVTPAFGISEEDLKTCVEGGMMLYSERVNSILKNGARYVRQVRESDKSRLVSLLIHGPAGSGKTALAAEIALKSGFPFIRLISPNELSGMSESAKIAYIDNTFRDAYKSPLNILVIDSLETLVDWVPIGPRFSNNILQMLKVALKRKPPQDRRLLIMTTTSAYSVLQQMDILSCFDNEIAVPNMTNLDELNNVMIESNFLDDAGRVKVINELSRSCPNFNVGIKKTLTNIETARHDEDPVNELVELMTQSA
notes: Hexamer in the y20S complex; heptamer or split hexamer with ATP and Mg2+; No TEV cleavage is described for the preparation used for y20S; also called wild-type Sec18; substrate-free Sec18; source: E. coli BL21(DE3), purified (Ni-NTA, SEC)
B3: NSF (N-ethylmaleimide-sensitive factor) (enzyme, C. griseus)
chain: MAGRSMQAARCPTDELSLSNCAVVSEKDYQSGQHVIVRTSPNHKYIFTLRTHPSVVPGSVAFSLPQRKWAGLSIGQEIEVALYSFDKAKQCIGTMTIEIDFLQKKNIDSNPYDTDKMAAEFIQQFNNQAFSVGQQLVFSFNDKLFGLLVKDIEAMDPSILKGEPASGKRQKIEVGLVVGNSQVAFEKAENSSLNLIGKAKTKENRQSIINPDWNFEKMGIGGLDKEFSDIFRRAFASRVFPPEIVEQMGCKHVKGILLYGPPGCGKTLLARQIGKMLNAREPKVVNGPEILNKYVGESEANIRKLFADAEEEQRRLGANSGLHIIIFDEIDAICKQRGSMAGSTGVHDTVVNQLLSKIDGVEQLNNILVIGMTNRPDLIDEALLRPGRLEVKMEIGLPDEKGRLQILHIHTARMRGHQLLSADVDIKELAVETKNFSGAELEGLVRAAQSTAMNRHIKASTKVEVDMEKAESLQVTRGDFLASLENDIKPAFGTNQEDYASYIMNGIIKWGDPVTRVLDDGELLVQQTKNSDRTPLVSVLLEGPPHSGKTALAAKIAEESNFPFIKICSPDKMIGFSETAKCQAMKKIFDDAYKSQLSCVVVDDIERLLDYVPIGPRFSNLVLQALLVLLKKAPPQGRKLLIIGTTSRKDVLQEMEMLNAFSTTIHVPNIATGEQLLEALELLGNFKDKERTTIAQQVKGKKVWIGIKKLLMLIEMSLQMDPEYRVRKFLALLREEGASPLDFD
notes: Heptamer (class 1) or hexamer (classes 2-4) with ATP and Mg2+; also called substrate-free NSF; high-purity NSF
B4: Sso1 (1–265) (domain or fragment, S. cerevisiae, UniProt P32867 1-265, looked up)
chain: T1 sequence (looked up) 1
notes: Sso1, S. cerevisiae syntaxin-like SNARE, residues 1-265 (Habc domain, linker, SNARE domain; no transmembrane domain); also called SNARE Sso1; source: E. coli BL21(DE3), purified (Ni-NTA, TEV, ion exchange, SEC); not shown: His6, N-terminal, cleaved
B5: Sec17 (natural protein, S. cerevisiae, UniProt P32602 1-292, looked up)
chain: MSDPVELLKRAEKKGVPSSGFMKLFSGSDSYKFEEAADLCVQAATIYRLRKELNLAGDSFLKAADYQKKAGNEDEAGNTYVEAYKCFKSGGNSVNAVDSLENAIQIFTHRGQFRRGANFKFELGEILENDLHDYAKAIDCYELAGEWYAQDQSVALSNKCFIKCADLKALDGQYIEASDIYSKLIKSSMGNRLSQWSLKDYFLKKGLCQLAATDAVAAARTLQEGQSEDPNFADSRESNFLKSLIDAVNEGDSEQLSEHCKEFDNFMRLDKWKITILNKIKESIQQQEDDLL
notes: also called Sec17/α-SNAP; adaptor Sec17; source: E. coli BL21(DE3), purified (Ni-NTA, TEV, MonoQ, SEC); not shown: His10, N-terminal, cleaved
B6: Sec9 (401–651) (domain or fragment, S. cerevisiae, UniProt P40357 401-651, looked up)
chain: T1 sequence (looked up) 2
notes: Sec9, S. cerevisiae SNAP25-like SNARE, residues 401-651; source: E. coli BL21(DE3), purified (Ni-NTA, TEV, MonoS, SEC); not shown: His6, N-terminal, cleaved

Assays:
Sec9 (401–651) = molecular target: B6; experiment: cryo-EM structure; y20S complex in the nonhydrolyzing condition: preformed ySNARE complex + Sec17 + EDTA-quenched Sec18 (Sec18:SNARE:Sec17 1:1.67:10) in 50 mM Tris, 150 mM NaCl, 1 mM TCEP, 1 mM ATP, 1 mM EDTA pH 8, Superose 6; eight 3D classes; conditions: both partners purified
Sso1 (1–265) = molecular target: B4; experiment: as above; conditions: both partners purified
[1] = molecular target: the molecule itself; experiment: cryo-EM structure; y20S complex in the hydrolyzing condition: as nonhydrolyzing, excess MgCl2 added on the grid, 7 s before vitrification; classes 1-4
[2] = molecular target: the molecule itself; experiment: cryo-EM structure; y20S complex in the nonhydrolyzing condition: preformed ySNARE complex + Sec17 + EDTA-quenched Sec18 (Sec18:SNARE:Sec17 1:1.67:10) in 50 mM Tris, 150 mM NaCl, 1 mM TCEP, 1 mM ATP, 1 mM EDTA pH 8, Superose 6; eight 3D classes
[3] = molecular target: the molecule itself; experiment: cryo-EM structure; substrate-free NSF in the hydrolyzing condition: buffer with ATP and 1 mM MgCl2 instead of EDTA, final SEC; four classes, 3DVA of class 3
[4] = molecular target: B2; experiment: cryo-EM structure; y20S complex in the hydrolyzing condition: as nonhydrolyzing, excess MgCl2 added on the grid, 7 s before vitrification; classes 1-4; conditions: both partners purified
[5] = molecular target: T1, yeast exocytic SNARE complex …; experiment: cryo-EM structure; y20S complex in the nonhydrolyzing condition: preformed ySNARE complex + Sec17 + EDTA-quenched Sec18 (Sec18:SNARE:Sec17 1:1.67:10) in 50 mM Tris, 150 mM NaCl, 1 mM TCEP, 1 mM ATP, 1 mM EDTA pH 8, Superose 6; eight 3D classes; conditions: both partners purified

Binder: B1
binding result (Sec9 (401–651)): binds
binding result (Sso1 (1–265)): binds

Binder: B2
stoichiometry N [1]: 7
stoichiometry N [2]: 6

Binder: B3
stoichiometry N [3]: 7

Binder: B4
binding result [4]: binds

Binder: B5
binding result [4]: binds
binding result [5]: binds

Binder: B6
binding result (Sso1 (1–265)): binds
